The target in experiment [1] is T1, Clostridium difficile toxin A (whole toxin A) (Clostridium difficile), P16154. To be noted: remark: other sources report otherwise.
Experiment [2] addresses T1, Clostridium difficile toxin A (whole …). To be noted: remark: other sources report otherwise. This is another data set of the same source.

Where two headings read alike, the source gives them in different places.

B1: CAN20G2 (antibody, V domains shown)
VH: QIQLVQSGPEVKKPGETVKISCKASGYTFTNQGMNWVKQAPGKGLKWMGWINTNTGEPTYTEEFKGRFAFSLETSASTAYLQINNLKNEDTATYFCYVNYDYYTMDFWGQGTSVTVSS
VL: QVVLTQSPAIMSASLGDRVTMTCTASSSVISTYLHWYQQKPGSSPKLWIYSTSTLASGVPPRFSGSGSGTSYSLTISSMEAEDAATYYCLQYHRSPRTFGGGTKLEIK
As a reminder, the Kd is the free concentration of one partner at which half of the binding sites on the other are occupied at equilibrium, for simple one-to-one binding. Read a high Kd as a looser complex. For orientation: koff means the rate constant with which the complex falls apart. High values mean fast dissociation, low ones slow dissociation. As usually defined, the kon is a measure of how fast the partners come together. Read a high kon as fast association. As to B1, in experiment [1], the Kd worked out at 4.19 pM, the koff amounted to 4.35e-07 s⁻¹ and the kon is 104000 M⁻¹ s⁻¹. In experiment [2], this molecule displayed a Kd of 0.166 nM, a koff of 1.8e-05 s⁻¹ and a kon of 108000 M⁻¹ s⁻¹.

The values are drawn from patent publication US20170051047A1.
